Measured values from the supplement of paper PMC11865577.

These sequences were tested on TO-N3 (biotin conjugate) (assay: pull-down binding Z-score (relative to library population); higher = stronger binding). Conditions: RNA library: Library-2.
How it was run: (§1)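 Biotin-conjugated small molecule (100 pmol) on streptavidin beads was incubated with 1 μg of heat-folded Cy5- or Cy3-end-labelled RNA library in phosphate/NaCl/KCl buffer at 25 °C for 60 min. Following three washes, RNA was eluted with hot SDS and hybridised at 55.5 °C for 20 h to a DNA barcode microarray. The binding value is a Z-score computed from the library mean and standard deviation, after subtraction of beads without compound and averaging of barcoded replicate probes with the highest and lowest excluded.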

Row | Sequence | pull-down binding Z-score
1 | CUGCAGAGACGAGGCCUGUAG [hsa-mir-5682] | 0.828
2 | CUGCAGGAAAGGGAAGACCAAGGCUUGCUGUCUGUCCAGUCUGCCACCCUACCCUGU [hsa-mir-1231] | 0.788
3 | CUGCAGGGACUGUGACACUGAA [hsa-mir-6816] | 0.85
4 | CUGCAGUGAGCGAUCGGUGCUCUGGGG [hsa-mir-503] | 0.798
5 | CUGCAGUGAGUAGGUCUGCCU [hsa-mir-4254] | 0.705
6 | CUGCCAUUGAAAGUAAAGGCAA [hsa-mir-548ag-2] | 0.608
7 | CUGCCCCUCGAAUCUGCUCCACGAUUUGGGCAG [hsa-mir-4436a] | -0.337
8 | CUGCGGCCCUGAUGUCUCUACUCCAG [hsa-mir-4691] | 0.703
9 | CUGCUCUCCCUGGCAGCAAG [hsa-mir-7109] | 0.283
10 | CUGCUGAAUCUUCAGAAAGG [hsa-mir-3142] | -0.164
11 | CUGCUGCCGAUUCUGCACCAG [hsa-mir-4756] | -0.301
12 | CUGCUGCUGCUGCUGCUGCUGCUGCUGCUGCUGCUGCUGCUGCUGCUG [r(CUG)16] | 0.778
13 | CUGCUUUUAAAGGUAAUGGCAA [hsa-mir-548ag-1] | 0.193
14 | CUGGAGUCGCCUGAGUCAUCACUCAG [hsa-mir-3065] | 0.0597
15 | CUGGCAUUUACGAGUCAGAGUUCUUACAGAGCUGC [hsa-mir-6514] | 0.639
16 | CUGGCCAUCAGUGUGGGCUAAC [hsa-mir-6732] | 0.33
17 | CUGGCUGGUCCAGCCCCUCAGAAG [hsa-mir-6796] | 1.39
18 | CUGGCUUCUCUGGUUCUCCAGCUUACAG [hsa-mir-1269b] | -0.0501
19 | CUGGGAAGAGACCAUGAACAGGUUAGUCCAG [hsa-mir-4327] | 0.536

Row | Sequence | pull-down binding Z-score
20 | CUGGGAAGGGAGCUGUCCGGCUCCCCAG [hsa-mir-3155b] | -0.53
21 | CUGGGAGGUGUGAUAUCGUGGUUCCUGG [hsa-mir-3689c] | 1.13
22 | CUGGGAGGUGUGAUCCCGUGCUUCCUGG [hsa-mir-3689b] | -0.713
23 | CUGGGAGGUGUGAUCCUGUGCUUCCUGG [hsa-mir-3689a] | 0.863
24 | CUGGGGACUGUGUGGACUGGUAUCACCCAG [hsa-mir-2278] | 0.225
25 | CUGGGGAGCCGGACAGCUCCCUUCCCAG [hsa-mir-3155a] | 0.7
26 | CUGGGGGAAGGCUCCAGACCCCAGCCU [hsa-mir-4267] | 1.19
27 | CUGGGGUUGGAAUGUGACCCCA [hsa-mir-4654] | 0.541
28 | CUGGGUCCUCUGUGCAGGGUCUUACCCAG [hsa-mir-7850] | -0.253
29 | CUGGGUGGGACACUCAG [hsa-mir-4692] | 0.91
30 | CUGGGUUCGGCUGCUACCCCAAA [hsa-mir-6768] | 0.563
31 | CUGGGUUCUUAGAGGCCUAAUCCUCUACAAACUCAGUUU [hsa-mir-4305] | 0.144
32 | CUGGUAGUAUAAAACCCAG [hsa-mir-934] | -0.151
33 | CUGGUGUUCUCACGCAAAGUGGCCAGGGUGUGGGAGACUAGA [hsa-mir-7161] | 1.14
34 | CUGUAUGUCCUAACAGUGCUUGUAG [hsa-mir-4794] | 0.0771
35 | CUGUCCCCUGCCACUGGGUGACC [hsa-mir-7114] | 0.471
36 | CUGUCCUGGACUGGGGUCAGACUGUGCCCCGAGGAGAAGCAG [hsa-mir-922] | 0.794
37 | CUGUCUGUUGUAUAAAAGAAAAGAUCG [hsa-mir-517a] | 0.594

Each sequence was assayed on TO-3-N3-2 (biotin conjugate) in the same assay as above. Conditions: RNA library: Library-2.
How it was run: as §1

Row | Sequence | pull-down binding Z-score
38 | CUCAUGUAAACUAAAACAUGAU [hsa-mir-508] | -0.244
39 | CUCAUUGUUGAAUGGAAUGAGAU [hsa-mir-3145] | -0.319
40 | CUCCGGGUUGGGG [hsa-mir-1469] | -0.476
41 | CUCCUAUUGAAAAUGAACAGGAG [hsa-mir-873] | -0.299
42 | CUCCUCCGCUGCCGCCGGGAGAG [hsa-mir-4785] | -0.327
43 | CUCGCUGGGAGGUGUGCUAUCGUCUUCCCCGGGAG [hsa-mir-3689d-1] | -0.13
44 | CUCGCUGGGAGGUGUGCUAUCGUCUUCCCUGGGAG [hsa-mir-3689d-2] | -0.246
45 | CUCGGCCAUCCUCCGUCUGCCCAG [hsa-mir-935] | 0.13
46 | CUCGGGAGGCUGAG [hsa-mir-4419a] | -0.459
47 | CUCGGGUGGAUAAGUCUGAUCUGAG [hsa-mir-3663] | -0.631
48 | CUCGUCUCUACAAAAAAUUGAGACAGG [hsa-mir-4512] | -0.15
49 | CUCUAGACUCUAUUAUAGUUUCCUGAG [hsa-mir-558] | -0.582
50 | CUCUCCUCCAGCUCAGCUGGUCAGGAGAG [hsa-mir-3160-1] | -0.0211
51 | CUCUCCUGACCAGCUGAGCUGGAGGAGAG [hsa-mir-3160-2] | -0.397
52 | CUCUCGUGUCCACUAGCAGGCAGGUUUUCUGACACAGG [hsa-mir-604] | 0.313
53 | CUCUCUGUUGCUCUGAAGGAG [hsa-mir-346] | -0.318
54 | CUCUGAUGUAAUUAGGU [hsa-mir-563] | -0.321
55 | CUCUGCUGUGUAAAUAGUUCUGAGUAGU [hsa-mir-454] | 0.0557
56 | CUCUGGUCAGUUGGGAGUCUGAG [hsa-mir-143] | -0.014
57 | CUCUGGUCUAUAAUGGGUUAAAUAGUAGAG [hsa-mir-609] | 0.234
58 | CUCUGUAGUUUUCUUAUAGUG [hsa-mir-644a] | -0.532
59 | CUCUUGAUAGCAGACAU [hsa-mir-4775] | 0.14
60 | CUGAAAAUACAAAAUGGAAAAUUCCAG [hsa-mir-4494] | 0.256
61 | CUGAACCCGUGGGUGAGGAGUGCAG [hsa-mir-4690] | 0.0142
62 | CUGAACUGGGCUGGGUUGAGCUGGGCUGGGCUGAGUUGAG [hsa-mir-4538] | 5.75
63 | CUGACCCGUUGUCAGACCUGGAAAAAGGGCCGGCUGUGGGCAGGGAGG [hsa-mir-4761] | 5.16
64 | CUGAGAGGUUUACAUUUCUC [hsa-mir-128-1] | -0.672
65 | CUGAGAGUGUCAUGGUGGAGCCUCCG [hsa-mir-4784] | -0.0723

Row | Sequence | pull-down binding Z-score
66 | CUGAGCGGCUCCAUCCCCCGGCCUGCUCAU [hsa-mir-6729] | 0.224
67 | CUGAGCUGGGUACUGCCUGUUCAG [hsa-mir-589] | 0.311
68 | CUGAGGAAUUUGCUGGGAUAUGUCAG [hsa-mir-584] | 0.168
69 | CUGAGGACAUGCAGUUUCAG [hsa-mir-7702] | -0.579
70 | CUGAGGACUGAGGCUCACCUUG [hsa-mir-6772] | 0.0747
71 | CUGAGUAACUUGUGCUUAUAACUCAG [hsa-mir-5000] | 0.379
72 | CUGAUUCAGAAAGAUCAUCGG [hsa-mir-127] | 0.0704
73 | CUGAUUGUCAUAUGUCGUUUGUGGGAUCCG [hsa-mir-340] | -0.336
74 | CUGCAGAACAUUGCAG [hsa-mir-4310] | -0.408
75 | CUGCAGAGACGAGGCCUGUAG [hsa-mir-5682] | 0.149
76 | CUGCAGGAAAGGGAAGACCAAGGCUUGCUGUCUGUCCAGUCUGCCACCCUACCCUGU [hsa-mir-1231] | 0.108
77 | CUGCAGGGACUGUGACACUGAA [hsa-mir-6816] | 0.24
78 | CUGCAGUGAGCGAUCGGUGCUCUGGGG [hsa-mir-503] | 0.308
79 | CUGCAGUGAGUAGGUCUGCCU [hsa-mir-4254] | 0.253
80 | CUGCCAUUGAAAGUAAAGGCAA [hsa-mir-548ag-2] | 0.239
81 | CUGCCCCUCGAAUCUGCUCCACGAUUUGGGCAG [hsa-mir-4436a] | -0.181
82 | CUGCGGCCCUGAUGUCUCUACUCCAG [hsa-mir-4691] | 0.103
83 | CUGCUCUCCCUGGCAGCAAG [hsa-mir-7109] | -0.0188
84 | CUGCUGAAUCUUCAGAAAGG [hsa-mir-3142] | -0.178
85 | CUGCUGCCGAUUCUGCACCAG [hsa-mir-4756] | -0.46
86 | CUGCUGCUGCUGCUGCUGCUGCUGCUGCUGCUGCUGCUGCUGCUGCUG [r(CUG)16] | -0.215
87 | CUGCUUUUAAAGGUAAUGGCAA [hsa-mir-548ag-1] | -0.0835
88 | CUGGAGUCGCCUGAGUCAUCACUCAG [hsa-mir-3065] | -0.276
89 | CUGGCAUUUACGAGUCAGAGUUCUUACAGAGCUGC [hsa-mir-6514] | 0.16
90 | CUGGCCAUCAGUGUGGGCUAAC [hsa-mir-6732] | -0.117
91 | CUGGCUGGUCCAGCCCCUCAGAAG [hsa-mir-6796] | 0.4
92 | CUGGCUUCUCUGGUUCUCCAGCUUACAG [hsa-mir-1269b] | -0.356
